Data: US6037158A, “Alcohol dehydrogenase and its use for the enzymatic production of chiral hydroxy compounds” (priority 1996, dated 2000)
Where two headings read alike, the source gives them in different places.

How the values were obtained:
[1] = target: T1, alcohol dehydrogenase from L. brevis (Levilactobacillus brevis, UniProt Q84EX5); test: biochemical; type: biochemical; settings: for Activity: 0.19 mM NADPH, pH 7.0, purified enzyme diluted 1:10; for activity at 10000 µM: read-out: Relative act.
T1 sequence (Q84EX5 2-252): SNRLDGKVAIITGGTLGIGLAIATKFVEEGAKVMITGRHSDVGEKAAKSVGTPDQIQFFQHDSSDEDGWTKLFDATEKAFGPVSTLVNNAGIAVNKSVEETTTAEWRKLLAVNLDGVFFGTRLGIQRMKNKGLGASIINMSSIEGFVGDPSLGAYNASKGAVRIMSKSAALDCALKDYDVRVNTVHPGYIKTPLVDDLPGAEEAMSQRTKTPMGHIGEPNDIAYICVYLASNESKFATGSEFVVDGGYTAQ
Experimental: A series of other ketones and keto esters were used instead of acetophenone and it was tested whether these can be reduced by enzyme catalysis.
The following test mixture was used for this:
970 μl triethanolamine buffer (50 mM; pH 7.0, containing 10 mM keto compound)
20 μl NADPH (0.19 mM in the test)
Some of the ketones were also tested at a concentration of 1 mM in order to verify a possible substrate inhibition at 10 mM.

[2] = target: T2, alcohol dehydrogenase from Lactobacillus brevis (Levilactobacillus brevis, UniProt Q84EX5); type: biochemical; settings: l. brevis alcohol dehydrogenase, 24 h, 5000 µM, pH 7
T2 construct: same enzyme regenerates NADPH with isopropanol
T2 sequence (Q84EX5 2-252): T1 sequence (Q84EX5 2-252)
Experimental: Purified enzyme (example 2C) and the necessary coenzyme (NADP) were used for the enzyme-catalysed synthesis of (R)-phenylethanol from acetophenone. The oxidized co-enzyme was continuously regenerated by isopropanol which was simultaneously present so that the reaction only required catalytic amounts of coenzyme. In detail the mixture contained (the final concentrations of the components in the test are listed in brackets): 20 μl NADP (0.05 mM), 7.7 μl isopropanol (0.1 M), 0.6 μl acetophenone (5 mM), 921.7 μl triethanolamine buffer (50 mM; pH 7.0, containing 1 mM MgCl2) and 50 μl alcohol dehydrogenase from Lactobacillus brevis (4.5 units). This mixture with a total volume of 1 ml was incubated for 24 hours at 30° C., then a sample was analysed by means of gas chromatography. For this 100 μl was removed, shaken out with 100 μl chloroform, the phases were separated by centrifugation and an aliquot was taken from the lower phase (chloroform) for the GC.
The separation conditions for the separation of (R)- and (S)-phenylethanol on a gas chromatograph: stationary phase: Lipodex E, CD column (Macherey and Nagel, Duren), mobile phase: helium, injection volumes: 1 μl detection: FID, temperature: 110° C. Under these conditions the substrate acetophenone is eluted at 10.5 min, (S)-phenylethanol at 13.8 min and (R)-phenylethanol at 14.2 min. […]

[3] = test system: whole cells of Lactobacillus brevis; test: Reduction of ketones with whole cells; type: cell-based; settings: after 2 h incubation at 30° C., 10 mM acetophenone, 50 mg cells, 0.1 M glucose
Experimental: In addition ketones can be reduced to chiral alcohols using whole cells of L. brevis. […] The coenzyme regeneration can be achieved by isopropanol or by metabolizable substrates such as glucose.
Test mixture: 50 mg cells of L. brevis (wetweight after centrifugation) is suspended in 860 μl triethanolamine buffer (50 mM; pH 7.50; addition of 1 MM MgCl^2+) which contains 0.1 M glucose and 10 mM acetophenone. Samples are analysed by means of gas chromatography. […] Since a quantification by means of GC separation on a chiral stationary phase had been carried out, it was possible to show at the same time that the phenylethanol that forms is of high optical purity but no quantifiable (S)-alcohol could be detected. The optical purity is considerably >95% for (R)-alcohol.

[4] = Temperature stability of the alcohol dehydrogenase (30 min at temperature, measured at 30° C.); type: physicochemical
Experimental: The temperature stability in the range of 25 to 70° C. was determined in an analogous manner to that described under A. The homogeneous enzyme solution was subjected for 30 min to the recited temperatures and subsequently measured directly at 30° C. with the above test mixture. […] In contrast the ADH from L. kefir is only stable up to 40° C. with a maximum at 37° C., afterwards the activity decreases rapidly. The maximum for this enzyme is at 37° C.

[5] = Temperature optimum of enzyme activity; type: biochemical
[6] = pH stability of the alcohol dehydrogenase (30 min incubation, then standard acetophenone test); type: physicochemical; settings: for Activity: 30 min
Experimental: The dependence of the activity of the enzyme when stored in buffers with various pH values was examined in the range of pH 4 to 11. Depending on the buffer capacity various buffers in the pH range of 4 to 11 were prepared and the homogeneous enzyme was incubated therein for 30 minutes. 1 μl thereof was removed and added to the normal test reagent mixture of 970 μl triethanolamine buffer (100 mM; pH 7.0 containing 11 mM acetophenone) and 20 μl NADPH (final concentration 0.19 mM). The reaction was monitored for 1 minute at 30° C. and 340 nm.

[7] = Standard enzyme test of purified enzyme (acetophenone, NADPH); type: biochemical
Experimental: The process for the isolation and purification of the ADH enzyme proceeds essentially via the following process steps: disruption of the cultured cells, such as by glass beads, carrying out hydrophobic chromatography or interaction chromatography and followed by subsequent anion exchange and affinity chromatography. In particular it has proven to be advantageous when all homogenization and elution buffers contain from about 0.5 to about 5 mM magnesium. In this connection a Mg^2+ concentration of about 1 mM has proven to be particularly advantageous. In this manner an enzyme is obtained which has a specific activity of at least 400 U/mg and in many cases up to 500 U/mg.
The enzyme was released from the cells by wet-grinding with the aid of glass beads (0.3 mm), but can also be achieved by any other method for disrupting bacterial cells. The bacterial mass is diluted to a 40% suspension with 0.1 M acetate buffer pH 4.0+1 mM MgCl2 supplemented with an antifoaming agent (polypropylene glycol). This was subjected to a 20 minute disruption while cooling continuously in a disintegrator (IMA Co.) at 4000 rpm with addition of glass beads in a ratio of 1:2. 8 g bacteria yielded 10 ml crude extract with a volume activity of 40 U/ml and a protein content of ca. 3 mg/ml. […]

[8] = relative to acetophenone = 100, 10 mM keto compound

Molecule: CC(=O)c1ccccc1 [acetophenone]
- Activity ([1]; 10 mM keto compound): 3.26 U/ml
- activity at 10000 µM [1, 8]: 100%
- substrate converted [2]: more than 95%
- substrate remaining (GC) [3]: no longer detectable

Molecule: alcohol dehydrogenase from Lactobacillus kefir: NADP-dependent R-alcohol dehydrogenase from Lactobacillus kefir (DE 40 14 573 C1), comparison enzyme [reference compound]
- temperature at which the enzyme is inactivated by 50% (thermal deactivation) [4]: 45 °C
- temperature of maximum stability ([4]; 30 min): 37 °C
- temperature range in which the enzyme is stable ([4]; 30 min): up to 40 °C
- act. (temperature stability) ([4]; 30 min at 25° C.): 36.5 U/ml
- act. (temperature stability) ([4]; 30 min at 30° C.): 30.2 U/ml
- act. (temperature stability) ([4]; 30 min at 37° C.): 35.8 U/ml
- act. (temperature stability) ([4]; 30 min at 40° C.): 32 U/ml
- act. (temperature stability) ([4]; 30 min at 45° C.): 26.2 U/ml
- act. (temperature stability) ([4]; 30 min at 50° C.): 2.4 U/ml
- act. (temperature stability) ([4]; 30 min at 55° C.): 0 U/ml
- optimal test temperature (activity maximum) [5]: 37 °C
- act. (temperature optimum) ([5]; test temperature 20° C.): 28.0 U/ml
- act. (temperature optimum) ([5]; test temperature 25° C.): 28.2 U/ml
- act. (temperature optimum) ([5]; test temperature 30° C.): 35.2 U/ml
- act. (temperature optimum) ([5]; test temperature 35° C.): 36.2 U/ml
- act. (temperature optimum) ([5]; test temperature 40° C.): 34.4 U/ml
- act. (temperature optimum) ([5]; test temperature 45° C.): 35.4 U/ml
- act. (temperature optimum) ([5]; test temperature 50° C.): 26.0 U/ml
- act. (temperature optimum) ([5]; test temperature 55° C.): 3.0 U/ml
- act. (temperature optimum) ([5]; test temperature 60° C.): 0 U/ml

Molecule: CC(=O)CO [hydroxyacetone]
- Activity ([1]; 10 mM keto compound): 0.74 U/ml
- activity at 10000 µM [1, 8]: 23%

Molecule: CCOC(=O)CCC(C)=O [laevulinic acid ethyl ester]
- Activity ([1]; 10 mM keto compound): 2.99 U/ml
- activity at 10000 µM [1, 8]: 92%

Molecule: CCC(=O)c1ccccc1 [propiophenone]
- Activity ([1]; 10 mM keto compound): 0.55 U/ml
- activity at 10000 µM [1]: 17%

Molecule: CC(=O)c1ccccc1Cl [2-Cl-acetophenone]
- Activity ([1]; 10 mM keto compound): 0.33 U/ml
- activity at 10000 µM [1]: 10%

B1: alcohol dehydrogenase from Lactobacillus brevis: stable R-specific NADP-dependent alcohol dehydrogenase purified to homogeneity from Lactobacillus brevis DSM 20054 (protein)
chain: MSNRLDGKVAIITGGTLGIGLAIATKFVEEGAKVMITGRHSDVGEKAAKSVGTPDQIQFFQHDSSDEDGWTKLFDATEKAFGPVSTLVNNAGIAVNKSVEETTTAEWRKLLAVNLDGVFFGTRLGIQRMKNKGLGASIINMSSIEGFVGDPSLGAYNASKGAVRIMSKSAALDCALKDYDVRVNTVHPGYIKTPLVDDLPGAEEAMSQRTKTPMGHIAEPNDIAYICVYLASNESKFATGSEFVVDGGYTAQ
- Activity ([6]; pH 4.0, Na acetate/acetic acid): 6.86 U/ml
- pH value of maximum stability (larger maximum) ([6]; pH 4 to 11, 30 min): 9.0
- pH value of the smaller maximum of pH stability ([6]; pH 4 to 11, 30 min): 5.5
- pH value of maximum stability (larger maximum) ([6]; pH 4 to 11, 30 min, listed as ADHs according to the invention): about 9.0
- Activity ([6]; pH 4.5, Na acetate/acetic acid): 6.22 U/ml
- Activity ([6]; pH 5.0, MES/NaOH): 7.04 U/ml
- Activity ([6]; pH 5.5, MES/MaOH): 8.73 U/ml
- Activity ([6]; pH 6.0, triethanolamine/NaOH): 5.58 U/ml
- Activity ([6]; pH 6.5, triethanolamine/NaOH): 5.80 U/ml
- Activity ([6]; pH 7.0, triethanolamine/NaOH): 6.57 U/ml
- Activity ([6]; pH 7.5, Tris/HCl): 5.04 U/ml
- Activity ([6]; pH 8.0, Tris/HCl): 3.83 U/ml
- Activity ([6]; pH 8.5, Tris/HCl): 8.42 U/ml
- Activity ([6]; pH 9.0, Tris/HCl): 17.11 U/ml
- Activity ([6]; pH 10.0, glycine/NaOH): 1.25 U/ml
- Activity ([6]; pH 11.0, glycine/NaOH): 2.43 U/ml
- temperature at which the enzyme is inactivated by 50% (thermal deactivation) [4]: about 65 °C
- retained activity ([4]; 50 mM MES buffer, about 30 minutes, between 25° C. and 60° C.): over 95%
- temperature of maximum stability ([4]; 30 min): 40 °C
- temperature of maximum stability ([4]; 30 min, listed as enzyme according to the invention): ca. 40 °C
- act. (temperature stability) ([4]; 30 min at 25° C.): 9.43 U/ml
- act. (temperature stability) ([4]; 30 min at 30° C.): 8.74 U/ml
- act. (temperature stability) ([4]; 30 min at 37° C.): 12.06 U/ml
- act. (temperature stability) ([4]; 30 min at 40° C.): 12.15 U/ml
- act. (temperature stability) ([4]; 30 min at 42° C.): 11.16 U/ml
- act. (temperature stability) ([4]; 30 min at 45° C.): 10.81 U/ml
- act. (temperature stability) ([4]; 30 min at 47° C.): 8.23 U/ml
- act. (temperature stability) ([4]; 30 min at 50° C.): 8.37 U/ml
- act. (temperature stability) ([4]; 30 min at 60° C.): 8.51 U/ml
- act. (temperature stability) ([4]; 30 min at 70° C.): 0.56 U/ml
- optimal test temperature (activity maximum) [5]: 50 °C
- optimal test temperature (activity maximum) ([5]; listed as enzyme according to the invention): ca. 50 °C
- act. (temperature optimum) ([5]; test temperature 25° C.): 10.31 U/ml
- act. (temperature optimum) ([5]; test temperature 30° C.): 9.66 U/ml
- act. (temperature optimum) ([5]; test temperature 37° C.): 9.76 U/ml
- act. (temperature optimum) ([5]; test temperature 40° C.): 17.78 U/ml
- act. (temperature optimum) ([5]; test temperature 42° C.): 16.93 U/ml
- act. (temperature optimum) ([5]; test temperature 45° C.): 18.06 U/ml
- act. (temperature optimum) ([5]; test temperature 47° C.): 19.13 U/ml
- act. (temperature optimum) ([5]; test temperature 50° C.): 31.46 U/ml
- act. (temperature optimum) ([5]; test temperature 55° C.): 24.48 U/ml
- act. (temperature optimum) ([5]; test temperature 60° C.): 23.69 U/ml
- act. (temperature optimum) ([5]; test temperature 65° C.): 1.98 U/ml
- act. (temperature optimum) ([5]; test temperature 70° C.): 0.58 U/ml
- specific activity [7]: at least 400 U/mg
